The target in assay [1] is T1, mFz: Fz domain and C-terminal flanking sequence of mouse MuSK (D307 to T494) with C-terminal Avi- and … (mouse, UniProt Q61006 307-494, limits assumed, biotinylated in vitro using the BirA enzyme).
T1 construct: also called mouse Fz; not shown: Avi- and His6-tags
T1 sequence (looked up): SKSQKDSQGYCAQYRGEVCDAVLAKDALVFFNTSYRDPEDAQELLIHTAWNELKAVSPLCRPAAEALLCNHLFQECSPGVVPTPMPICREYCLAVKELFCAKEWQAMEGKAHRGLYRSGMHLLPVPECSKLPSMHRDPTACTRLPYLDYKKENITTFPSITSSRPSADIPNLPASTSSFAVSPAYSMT
Briefly: bead-binding assay, Fab format: biotinylated antigen on streptavidin beads, flow cytometry, 1:1 fit; average ± s.d., n=3.

In assay [2] the target is T2, hECD: full-length extracellular region of human MuSK (E22 to T495) with C-terminal Avi- and His6-tags (human, UniProt O15146 22-495, biotinylated in vitro using the BirA enzyme).
T2 construct: also called human ECD; not shown: Avi- and His6-tags
T2 sequence: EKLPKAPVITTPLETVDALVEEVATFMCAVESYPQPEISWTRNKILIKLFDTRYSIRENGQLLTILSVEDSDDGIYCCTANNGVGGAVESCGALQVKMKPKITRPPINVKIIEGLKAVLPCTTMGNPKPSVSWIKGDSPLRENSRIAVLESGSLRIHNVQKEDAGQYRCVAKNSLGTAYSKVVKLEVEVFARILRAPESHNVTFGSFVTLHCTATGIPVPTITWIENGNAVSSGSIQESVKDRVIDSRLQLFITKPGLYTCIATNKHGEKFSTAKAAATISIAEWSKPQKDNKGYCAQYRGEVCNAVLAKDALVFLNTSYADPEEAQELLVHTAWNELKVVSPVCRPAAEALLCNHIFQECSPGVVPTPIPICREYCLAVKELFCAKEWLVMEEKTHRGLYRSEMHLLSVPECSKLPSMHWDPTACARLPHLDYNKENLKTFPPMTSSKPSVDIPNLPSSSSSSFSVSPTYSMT
The description is as above.

Assay [3] deals with T3, mECD: full-length extracellular region of mouse MuSK (E22 to T494) with C-terminal Avi- and His6-tags (mouse, UniProt Q61006 22-494, biotinylated in vitro using the BirA enzyme).
T3 construct: range 22-494; also called mouse ECD; not shown: Avi- and His6-tags
T3 sequence (looked up): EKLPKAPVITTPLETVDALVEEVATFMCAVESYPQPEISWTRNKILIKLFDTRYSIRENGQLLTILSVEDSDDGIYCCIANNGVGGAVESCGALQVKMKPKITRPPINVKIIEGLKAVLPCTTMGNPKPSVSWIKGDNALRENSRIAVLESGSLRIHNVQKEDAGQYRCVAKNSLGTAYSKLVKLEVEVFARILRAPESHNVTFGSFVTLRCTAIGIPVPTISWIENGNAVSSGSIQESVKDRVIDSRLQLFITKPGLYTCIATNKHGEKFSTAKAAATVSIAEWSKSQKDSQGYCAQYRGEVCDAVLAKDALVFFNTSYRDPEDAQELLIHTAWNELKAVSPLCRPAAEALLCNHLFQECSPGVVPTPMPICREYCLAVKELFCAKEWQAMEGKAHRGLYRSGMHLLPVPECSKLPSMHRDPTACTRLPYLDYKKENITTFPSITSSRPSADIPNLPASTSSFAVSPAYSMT
The description is as above.

Assay [4] concerns the target T4, hFz: Fz domain and C-terminal flanking sequence of human MuSK (K314-T495) with C-terminal Avi- and His6-tags (human, UniProt O15146 314-495, biotinylated in vitro using the BirA enzyme).
T4 construct: also called human Fz; not shown: Avi- and His6-tags
T4 sequence: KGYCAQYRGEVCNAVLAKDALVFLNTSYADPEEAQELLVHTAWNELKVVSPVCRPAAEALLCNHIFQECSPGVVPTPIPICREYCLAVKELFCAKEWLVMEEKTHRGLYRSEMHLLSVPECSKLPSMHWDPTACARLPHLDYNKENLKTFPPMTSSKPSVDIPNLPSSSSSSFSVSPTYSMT
The assay is described as above.

In assay [5] the target is T1, mFz: Fz domain and C-terminal flanking …. Kind of assay: bead-binding titration, Fab format: antigen immobilized on streptavidin beads, MFI by flow cytometry, curve is the 1:1 fit. On the technique in general: Flow cytometry measures light scatter and fluorescence of single cells or particles in a stream.
Assay [6] concerns the target T2, hECD: full-length extracellular region …. Described as above.
The target of assay [7] is T3, mECD: full-length extracellular region …. The assay is described as above.
The target of assay [8] is T4, hFz: Fz domain and C-terminal flanking …. The assay is described as above.
The target of assay [9] is T5, mouse MuSK (mouse, UniProt Q61006 22-494, limits assumed).
T5 construct: Coated on ELISA plates or on the Biacore chip; also called full length mouse MuSK; mouse MuSK (in house produced in HEK293 cells)
T5 sequence (looked up): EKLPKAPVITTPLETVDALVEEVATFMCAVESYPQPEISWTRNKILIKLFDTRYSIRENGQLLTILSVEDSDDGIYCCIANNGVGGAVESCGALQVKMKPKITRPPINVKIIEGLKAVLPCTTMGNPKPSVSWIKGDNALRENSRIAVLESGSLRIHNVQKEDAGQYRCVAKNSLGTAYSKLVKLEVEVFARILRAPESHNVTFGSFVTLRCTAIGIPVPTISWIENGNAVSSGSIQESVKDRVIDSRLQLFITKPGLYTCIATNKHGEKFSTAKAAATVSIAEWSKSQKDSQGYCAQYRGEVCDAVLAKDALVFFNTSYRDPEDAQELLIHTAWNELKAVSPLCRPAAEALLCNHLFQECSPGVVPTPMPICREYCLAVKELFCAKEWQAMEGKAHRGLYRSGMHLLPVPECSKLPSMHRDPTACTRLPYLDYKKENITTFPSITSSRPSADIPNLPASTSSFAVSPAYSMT
Kind of assay: Biacore, mAb. From the text:
(§1) For affinity determination, a CMS chip was coated with either human or mouse MuSK (200RU) and a dilution series of the antibodies (mAbs and Fabs) was applied in order to be able to calculate the affinity.
In general terms: In SPR one partner is held on a chip, and binding of the other changes the refractive index at the surface.

The target of assay [10] is T6, mouse MuSK, endogenous (C2C12 myotubes; neuromuscular synapses of mice) (mouse, UniProt Q61006 22-868).
T6 sequence (looked up): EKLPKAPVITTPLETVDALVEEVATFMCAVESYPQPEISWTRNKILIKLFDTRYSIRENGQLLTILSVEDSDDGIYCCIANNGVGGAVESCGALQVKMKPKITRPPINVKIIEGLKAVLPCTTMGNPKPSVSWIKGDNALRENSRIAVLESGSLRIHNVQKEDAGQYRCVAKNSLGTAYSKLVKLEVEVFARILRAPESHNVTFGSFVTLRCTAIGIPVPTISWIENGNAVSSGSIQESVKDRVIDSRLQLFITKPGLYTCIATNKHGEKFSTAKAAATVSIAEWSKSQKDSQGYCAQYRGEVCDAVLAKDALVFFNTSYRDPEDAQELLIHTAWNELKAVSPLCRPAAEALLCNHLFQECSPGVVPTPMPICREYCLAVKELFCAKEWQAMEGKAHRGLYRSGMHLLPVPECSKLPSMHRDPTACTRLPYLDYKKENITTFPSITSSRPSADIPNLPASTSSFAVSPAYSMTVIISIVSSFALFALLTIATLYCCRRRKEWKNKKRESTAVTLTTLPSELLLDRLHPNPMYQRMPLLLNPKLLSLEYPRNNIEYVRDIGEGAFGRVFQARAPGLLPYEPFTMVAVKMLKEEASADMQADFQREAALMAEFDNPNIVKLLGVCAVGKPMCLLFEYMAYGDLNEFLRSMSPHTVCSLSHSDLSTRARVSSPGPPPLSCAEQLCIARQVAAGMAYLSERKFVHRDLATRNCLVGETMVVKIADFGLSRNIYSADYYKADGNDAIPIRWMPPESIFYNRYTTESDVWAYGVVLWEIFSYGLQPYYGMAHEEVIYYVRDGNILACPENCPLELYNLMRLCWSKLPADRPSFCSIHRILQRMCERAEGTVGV
Kind of assay: cell-based or functional assay.

The target in a further assay is T7, human MuSK (human, UniProt O15146 24-495).
T7 construct: Recombinant protein coated on ELISA plates (R&D Systems cat. 10189-MK) or on the Biacore chip; also called human muscle-specific tyrosine protein kinase; full length human MuSK
T7 sequence: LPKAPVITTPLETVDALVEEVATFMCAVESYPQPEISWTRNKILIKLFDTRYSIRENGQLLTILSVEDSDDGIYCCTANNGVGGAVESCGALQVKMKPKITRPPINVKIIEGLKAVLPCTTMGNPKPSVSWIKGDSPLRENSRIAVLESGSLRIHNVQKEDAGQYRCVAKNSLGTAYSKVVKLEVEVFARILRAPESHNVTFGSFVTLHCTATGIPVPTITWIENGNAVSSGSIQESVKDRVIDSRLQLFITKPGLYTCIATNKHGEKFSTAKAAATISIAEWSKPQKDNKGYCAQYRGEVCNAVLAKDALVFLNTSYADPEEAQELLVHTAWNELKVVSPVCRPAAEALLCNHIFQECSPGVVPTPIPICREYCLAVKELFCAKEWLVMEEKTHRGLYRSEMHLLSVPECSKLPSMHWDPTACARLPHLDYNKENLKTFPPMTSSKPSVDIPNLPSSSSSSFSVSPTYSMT
Kind of assay: Biacore, MuSK on chip (200RU), mAb dilution series.
Excerpt: as §1

The target in assay [11] is T5, mouse MuSK. Briefly: Biacore, MuSK on chip (200RU), mAb dilution series.
Excerpt: as §1

B1: X13 Fab (Fab, V domains shown)
VH: EVQLVESGGGLVQPGGSLRLSCAASGFTISSSSIHWVRQAPGKGLEWVASISSSSGSTSYADSVKGRFTISADTSKNTAYLQMNSLRAEDTAVYYCARSSEHWYTIGYYGIDYWGQGTLVTVSS
VL: DIQMTQSPSSLSASVGDRVTITCRASQSVSSAVAWYQQKPGKAPKLLIYSASSLYSGVPSRFSGSRSGTDFTLTISSLQPEDFATYYCQQSYGSFSLITFGQGTKVEIK
notes: also called Fab Clone X13
A word on the Kd: it is the free concentration of one partner at which half of the binding sites on the other are occupied at equilibrium, for simple one-to-one binding. Low readings indicate tighter binding, high ones weaker binding. Usually EC50 (read off the curve) stands for the concentration giving half of the maximal effect. With B1, the Kd is 1.56 nM in assay [1], 2.39 nM in assay [2], 2.41 nM in [3] and 1.7 nM in assay [4]. Moreover, the “EC50 (read off the curve)” value in [5], in [6], in assay [7] and in [8] was roughly 2 nM each time.

B2: X6 Fab (Fab, V domains shown)
VH: EVQLVESGGGLVQPGGSLRLSCAASGFTFSSSSIHWVRQAPGKGLEWVASISSYSGYTYYADSVKGRFTISADTSKNTAYLQMNSLRAEDTAVYYCARTYGSYYVSSYTGMDYWGQGTLVTVSS
VL: DIQMTQSPSSLSASVGDRVTITCRASQSVSSAVAWYQQKPGKAPKLLIYSASSLYSGVPSRFSGSRSGTDFTLTISSLQPEDFATYYCQQSSSSLITFGQGTKVEIK
notes: also called Fab Clone X6
Consider B2, for which the Kd in assay [1] amounted to 0.42 nM; in assay [2], 1.47 nM; in assay [3], 0.59 nM; in [4], 0.9 nM. The “EC50 (read off the curve)” value was roughly 0.4 nM in assay [5], roughly 1 nM in assay [6], roughly 0.6 nM in assay [7] and roughly 1 nM in assay [8].

B3: 30E1 (antibody, V domains shown)
VH: QVQVQESGPGLVKPSQTLSLTCTVSGGSITARYYSWSWIRQPPGKGLEWMGVIAYDGSTYYSPSLKSRTSISRDTSKNQFSLHLSSVTPDDTAVYYCARGSSRVAAAFDSWGQGTQVTVSS
VL: SYELTQSPSVSVALRRTAKITCGGDNIGSKNTQWYQQKPGQAPVLVIYADSRRPSGIPERFSGSNSGNTATLTISGAQAEDEADYYCHVWDSSTNAWFGGGTHLTVL
notes: human IgG1 with the LALA mutations (L234A, L235A); produced in HEK293 cells; also called 30E1 mAb
With B3, the “fold difference in affinity, human versus mouse MuSK” value with mouse MuSK [9] stood at 10 fold. For the same molecule, in assay [10], the “% Phosphorylation Induced in C2C12 Mouse Assay, Assay 1” value was determined as 66 % versus agrin; the “% Phosphorylation Induced in C2C12 Mouse Assay, Assay 2” value amounted to 82 % versus agrin; the “% Phosphorylation Induced in C2C12 Mouse Assay, Assay 3” value came out at 50 % versus agrin; the “% Phosphorylation Induced in C2C12 Mouse Assay, Average” value was 66 % versus agrin. For the same molecule, the Kd with human MuSK amounted to 0.011 nM. In addition, binding with mouse MuSK [11] was characterised by a dissociation constant (Kd) of 0.153 nM.

B4: 30A11 (antibody, V domains shown)
VH: QVQVQESGPGLVKPSQTLSLTCTVSGGSITARYYSWSWIRQPPGKGLEWMGVIAYDGSTYYSPSLKSRTSISRDTSKNQFSLHLSSVTPDDTAVYYCARGSSRVAAAFDSWGQGTQVTVSS
VL: SYELTQSPSVTVALRQTAKITCGGDNIASKNVQWYQQKPGQAPSLVIWADSRRPSGIPVRFSGSNFGNTATLTISGAQAEDEADYYCQVWDSSTNVAVFGGGTHLTVL
notes: human IgG1 with the LALA mutations (L234A, L235A); produced in HEK293 cells; also called 30A11 mAb
Turning to B4, in the assay with mouse MuSK [9], the “fold difference in affinity, human versus mouse MuSK” value came to 100 fold. In addition, in assay [10], the “% Phosphorylation Induced in C2C12 Mouse Assay, Assay 1” value is 73 % versus agrin; the “% Phosphorylation Induced in C2C12 Mouse Assay, Assay 2” value stood at 89 % versus agrin; the “% Phosphorylation Induced in C2C12 Mouse Assay, Assay 3” value was found to be 74 % versus agrin; the “% Phosphorylation Induced in C2C12 Mouse Assay, Average” value is 79 % versus agrin. In the assay with human MuSK, this molecule showed a Kd of 0.001 nM. Also, the Kd with mouse MuSK [11] was 0.11 nM.

The record behind these values is patent US20230151091A1 (NEW YORK UNIVERSITY, published 2023).
